Data from the RNAGym collection of RNA variant scans (doi:10.1093/nar/gkz1192).

B1: CPEB3 Ribozyme (parent)
chain: UAACAGGGGGCCACAGCAGAAGCGUUCACGUCGCAGCCCCUGUCAGAUUCUGGUGAAUCUGCGAAUUCUGCUGUAUAUCUC

Variants of: B1
Test: self-cleavage, relative activity (ratio to wild type); higher = more cleavage; in vitro, sequencing
How it was run: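 Libraries of CPEB3 self-cleaving ribozyme mutants came from rounds of error-prone PCR and carried barcodes, which DNA sequencing matched to variants. In vitro transcription used T7 RNA polymerase at 37°C for 5 hours, with a further 15 min in DNase I before EDTA stopped the reaction; the ribozymes cleaved during both steps. The RNA was reverse transcribed with template switching and sequenced on Illumina. Relative activity is the cleaved/total read fraction of a variant divided by that of the unmutated ribozyme, averaged over three batches with at least 5 reads.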
In the case of A45G G63U, the self-cleavage is reported as 0.74.
In the case of A45G G70A, the self-cleavage is reported as 0.42.
A45G G70U gave a self-cleavage of 0.33.
With A45G G73A the self-cleavage was 1.16.
In the case of A45G G73C, the self-cleavage is reported as 0.69.
Variant A45G G73U has a self-cleavage of 1.29.
For A45G U48A, the self-cleavage was 0.39.
A45G U48C showed a self-cleavage of 0.29.
A45G U48G showed a self-cleavage of 0.19.
Variant A45G U49A has a self-cleavage of 0.42.
A45G U49C gave a self-cleavage of 0.27.
Work on A45G U49G yielded a self-cleavage of 0.1.
Work on A45G U51A yielded a self-cleavage of 0.74.
With A45G U51C the self-cleavage was 0.7.
Variant A45G U51G has a self-cleavage of 0.64.
In the case of A45G U54A, the self-cleavage is reported as 0.85.
A45G U54C gave a self-cleavage of 0.88.
For A45G U54G, the self-cleavage was 0.56.
Work on A45G U58A yielded a self-cleavage of 0.31.
With A45G U58C the self-cleavage was 0.31.
Variant A45G U58G has a self-cleavage of 0.18.
Variant A45G U60A has a self-cleavage of 0.53.
A45G U60C showed a self-cleavage of 1.13.
With A45G U60G the self-cleavage was 0.25.
In the case of A45G U66A, the self-cleavage is reported as 0.41.
A45G U66C gave a self-cleavage of 0.34.
A45G U67A showed a self-cleavage of 0.38.
Work on A45G U67C yielded a self-cleavage of 0.34.
Variant A45G U69A has a self-cleavage of 0.42.
In the case of A45G U69C, the self-cleavage is reported as 0.38.
A45G U69G showed a self-cleavage of 0.32.
Variant A45G U72A has a self-cleavage of 0.62.
With A45G U72C the self-cleavage was 0.98.
Variant A45G U74A has a self-cleavage of 1.13.
Variant A45G U74C has a self-cleavage of 1.1.
For A45G U74G, the self-cleavage was 1.21.
Variant A45G U76A has a self-cleavage of 0.96.
Variant A45G U76C has a self-cleavage of 0.79.
A45G U76G gave a self-cleavage of 0.97.
A45G U78A showed a self-cleavage of 0.91.
Work on A45G U78C yielded a self-cleavage of 0.76.
Variant A45G U78G has a self-cleavage of 0.81.
Variant A45G U80A has a self-cleavage of 0.91.
Work on A45G U80C yielded a self-cleavage of 0.91.
A45G U80G showed a self-cleavage of 1.02.
Work on A45U yielded a self-cleavage of 0.51.
For A45U A47C, the self-cleavage was 0.22.
For A45U A47G, the self-cleavage was 0.36.
Variant A45U A47U has a self-cleavage of 0.24.
A45U A56C gave a self-cleavage of 0.28.
In the case of A45U A56G, the self-cleavage is reported as 0.27.
In the case of A45U A56U, the self-cleavage is reported as 0.23.
In the case of A45U A57C, the self-cleavage is reported as 0.35.
With A45U A57G the self-cleavage was 0.31.
A45U A57U showed a self-cleavage of 0.33.
Work on A45U A64G yielded a self-cleavage of 0.33.
Work on A45U A64U yielded a self-cleavage of 0.27.
With A45U A65G the self-cleavage was 0.25.
Work on A45U A65U yielded a self-cleavage of 0.18.
With A45U A75G the self-cleavage was 0.35.
In the case of A45U A75U, the self-cleavage is reported as 0.55.
A45U A77G showed a self-cleavage of 0.52.
A45U A77U showed a self-cleavage of 0.55.
For A45U C50A, the self-cleavage was 0.16.
For A45U C50G, the self-cleavage was 0.06.
For A45U C62A, the self-cleavage was 0.17.
In the case of A45U C62G, the self-cleavage is reported as 0.44.
Work on A45U C62U yielded a self-cleavage of 0.31.
A45U C68G gave a self-cleavage of 0.25.
A45U C68U gave a self-cleavage of 0.53.
A45U C71A showed a self-cleavage of 0.1.
With A45U C71U the self-cleavage was 0.13.
A45U C79A gave a self-cleavage of 0.8.
A45U C79U showed a self-cleavage of 0.77.
For A45U C81A, the self-cleavage was 0.87.
Variant A45U C81U has a self-cleavage of 0.46.
With A45U G46A the self-cleavage was 0.41.
A45U G52C gave a self-cleavage of 0.29.
In the case of A45U G53A, the self-cleavage is reported as 0.68.
Work on A45U G53C yielded a self-cleavage of 0.33.
A45U G53U gave a self-cleavage of 0.58.
Work on A45U G55A yielded a self-cleavage of 0.14.
Variant A45U G55U has a self-cleavage of 0.24.
A45U G61A showed a self-cleavage of 0.46.
In the case of A45U G63A, the self-cleavage is reported as 0.54.
Variant A45U G63C has a self-cleavage of 0.66.
For A45U G63U, the self-cleavage was 0.46.
A45U G70A gave a self-cleavage of 0.29.
A45U G73A gave a self-cleavage of 1.23.
For A45U G73U, the self-cleavage was 1.2.
Variant A45U U48A has a self-cleavage of 0.15.
In the case of A45U U48C, the self-cleavage is reported as 0.34.
A45U U49A showed a self-cleavage of 0.17.
A45U U49C showed a self-cleavage of 0.25.
A45U U51A showed a self-cleavage of 0.33.
Work on A45U U51C yielded a self-cleavage of 0.48.
With A45U U51G the self-cleavage was 0.46.
A45U U54A showed a self-cleavage of 0.51.
For A45U U54C, the self-cleavage was 0.53.
A45U U54G gave a self-cleavage of 0.21.
Work on A45U U58A yielded a self-cleavage of 0.12.
Work on A45U U58C yielded a self-cleavage of 0.29.
Work on A45U U60A yielded a self-cleavage of 1.09.
In the case of A45U U60C, the self-cleavage is reported as 0.46.
In the case of A45U U60G, the self-cleavage is reported as 0.68.
With A45U U66A the self-cleavage was 0.31.
For A45U U66C, the self-cleavage was 0.27.
With A45U U66G the self-cleavage was 0.13.
In the case of A45U U67A, the self-cleavage is reported as 0.24.
A45U U67C showed a self-cleavage of 0.27.
Variant A45U U67G has a self-cleavage of 0.17.
With A45U U69A the self-cleavage was 0.31.
A45U U69C showed a self-cleavage of 0.31.
Work on A45U U69G yielded a self-cleavage of 0.51.
With A45U U72A the self-cleavage was 0.39.
Work on A45U U72C yielded a self-cleavage of 0.5.
In the case of A45U U72G, the self-cleavage is reported as 0.61.
Work on A45U U74A yielded a self-cleavage of 1.03.
With A45U U74C the self-cleavage was 0.87.
In the case of A45U U74G, the self-cleavage is reported as 1.09.
Variant A45U U76A has a self-cleavage of 0.52.
Variant A45U U76C has a self-cleavage of 0.49.
A45U U78A gave a self-cleavage of 0.62.
Work on A45U U78C yielded a self-cleavage of 0.44.
A45U U78G gave a self-cleavage of 0.65.
A45U U80C showed a self-cleavage of 0.62.
G46A showed a self-cleavage of 0.33.
For G46A A47C, the self-cleavage was 0.17.
For G46A A47U, the self-cleavage was 0.24.
With G46A A56G the self-cleavage was 0.25.
G46A A57G gave a self-cleavage of 0.16.
Work on G46A A64G yielded a self-cleavage of 0.19.
G46A A64U gave a self-cleavage of 0.08.
With G46A A65G the self-cleavage was 0.14.
G46A A65U showed a self-cleavage of 0.43.
Variant G46A A75G has a self-cleavage of 0.25.
With G46A A77G the self-cleavage was 0.27.
Variant G46A A77U has a self-cleavage of 0.48.
G46A C50G gave a self-cleavage of 0.21.
Variant G46A C50U has a self-cleavage of 0.17.
G46A C68A gave a self-cleavage of 0.15.
Work on G46A G53A yielded a self-cleavage of 0.45.
In the case of G46A G63C, the self-cleavage is reported as 0.62.
With G46A G73A the self-cleavage was 0.99.
Work on G46A U48C yielded a self-cleavage of 0.26.
In the case of G46A U49A, the self-cleavage is reported as 0.33.
For G46A U49C, the self-cleavage was 0.11.
Variant G46A U54C has a self-cleavage of 0.06.
For G46A U58C, the self-cleavage was 0.38.
G46A U60A showed a self-cleavage of 0.5.
G46A U60C showed a self-cleavage of 0.14.
G46A U66C showed a self-cleavage of 0.25.
Variant G46A U67A has a self-cleavage of 0.18.
G46A U67C gave a self-cleavage of 0.15.
G46A U69C showed a self-cleavage of 0.07.
In the case of G46A U72C, the self-cleavage is reported as 0.32.
Work on G46A U74C yielded a self-cleavage of 0.48.
With G46A U76A the self-cleavage was 0.5.
G46A U76C showed a self-cleavage of 0.19.
G46A U78C showed a self-cleavage of 0.38.
For G46A U80C, the self-cleavage was 0.37.
Work on G46C yielded a self-cleavage of 0.32.
Work on G46C A47G yielded a self-cleavage of 0.26.
In the case of G46C A56U, the self-cleavage is reported as 0.13.
Variant G46C A64U has a self-cleavage of 0.11.
G46C U49A gave a self-cleavage of 0.04.
Work on G46C U51A yielded a self-cleavage of 0.25.
